3 compounds from patent publication US8450481B2, “Compounds for inhibiting protein aggregation, and methods for making and using them” (The Regents of the University of California, priority 2007, dated 2013) can be followed below.

For assay [1], the system named is HEK293T cells expressing α-syn. Put plainly: ion currents in HEK293T cells expressing α-syn. The assay is classed as cell-based. Particulars: extracellular application of 500 μM Zn^2+, +80 mv. From the text: FIG. 3K, FIG. 3L and FIG. 3M graphically illustrate data showing representative currents elicited by depolarizing the cells from a holding potential of −50 mv to a series of test potentials ranging from −80 to +80 mv, and corresponding current-voltage relationship (E; means±SE) in transduced cells. Cells expressing α-syn display a significant increase in ion currents. FIG. 3N left panel graphically illustrates representative currents at +80 mv (left panel) before (Cont), during (Zn^2+) and after (Wash) application of 500 μM Zn^2+. FIG. 3N, right panel, graphically illustrates the time course of the change in current density before, during, and after extracellular application of Zn^2+. The arrows correspond to the currents shown in the left panel (Cont, a; Zn^2+, b; and Washout, c). The increased currents in cells expressing α-syn are attenuated by Zn^2+.

Assay [2] deals with T1, SYN (Homo sapiens, UniProt P37840). Put plainly: cell free SYN aggregation assay with immunoblot. The assay is classed as biochemical. The note with it: for blocking SYN aggregation in cell free system, compared with the other peptides and controls: immunoblot. As to the method: The peptides of the invention were tested in a cell free system with the appropriate controls (smaller and larger peptides, amino acid (aa) substitutions, scrambled sequence). For this purpose recombinant SYN (10 uM) was incubated at 37 and 65 degrees C. for 0, 4, 6, 12 and 24 with the peptides at 0, 1 and 10 uM. Control experiments where performed with beta and gamma-synuclein as well as with a mutant SYN molecule that cannot bind the peptide. The mixture was run in a gel, followed by immunoblot testing with SYN antibodies.
In general terms: Immunoblotting shows a protein as a band on a membrane.

The subject of assay [3] is neuronal cultures overexpressing α-syn. Put plainly: neuronal viability by LDH assay in neuronal cultures overexpressing α-syn. In kind it is cell-based. The source says:
FIG. 17 illustrates the effects of a peptide blocker of α-syn aggregation of this invention in neuronal viability.

Assay [4] deals with T1, SYN. The experiment in a line: α-syn aggregation/accumulation in neuronal cultures overexpressing α-syn (B103 neuronal cell line, lentivirus SYN). In kind it is cell-based. On the set-up: expressed in transfected cells; host or cells: B103 neuronal cell line, lentiviral transduction. Particulars: 24 hrs. The procedure:
The B103 neuronal cell line was infected with a lentivirus expressing SYN (wildtype) or GFP (control) and cells expressing SYN were exposed to the peptides at 0, 1 and 10 uM for 24 hrs. Cells were assayed for SYN aggregation by immunoblot, neurite outgrowth and survival. […] The peptide KKDQLGK (SEQ ID NO:1) and control peptides can be injected into the brain of SYN transgenic (tg) mice to test for in vivo effects.

In another assay the target is T2, α-syn (Homo sapiens, UniProt P37840).
T2 construct: from tissue; host or cells: brain (hippocampus) of thy1-α-syn transgenic mice
The experiment in a line: intraventricular infusion in α-syn transgenic mice. In kind it is in vivo. As to the method:
FIG. 19 illustrates the effects of peptide blocker of α-syn aggregation in vivo in α-syn (α-syn) transgenic mice. FIG. 19A illustrates the experimental design: for these studies the thy1-overexpressing α-syn received intraventricular infusions with osmotic minipumps of control scrambled peptide, or the exemplary peptide of this invention 96-102 KKDQLGK (SEQ ID NO:1) for 6 weeks, at 30 μM peptide, where 200 μl of solution is minipumped into the lateral ventricle of the animal.

Assay [5] has as its system neuronal cultures overexpressing α-syn. Put plainly: intracellular calcium influx by Fluo-4 and FLIPR assay in neuronal cultures overexpressing α-syn. The note with it: after 24 hrs at 37° C., compared to vehicle and scrambled peptide controls. The assay is classed as cell-based. From the text: FIG. 18 illustrates the effects of a peptide blocker of α-syn aggregation of this invention in neuronal calcium levels. FIG. 18A is a micrograph illustration showing that in neuronal cultures overexpressing α-syn there is a significant time dependent increase in intracellular calcium influx as determined by Fluo-4 and the FLIPR assay. […] (arrow) compared to vehicle and scrambled peptide controls. Data from these studies is graphically summarized on the right hand panels.
Background: A change in cytosolic calcium serves as a functional read-out for many receptors and channels.

For `[Zn+2]` [Zn^2+], the “increased ion currents in cells expressing α-syn” value in assay [1] is reported as “attenuated”.

EKTKEQVTN [amino acids 57-65 of SYN]: the “blocking SYN aggregation in cell free system, compared with the other peptides and controls” value in the assay with SYN [2] is given as “most effective at blocking SYN aggregation”.

Consider “KKDQLGK [amino acids 96-102 of human SYN]”, for which the “neuronal viability as assayed by the LDH assay” value in assay [3] was “improved neuronal viability”. Also, the “blocking SYN aggregation in neuronal cell based system, compared with the other peptides and controls” value with SYN [4] (immunoblot, B103 cells expressing SYN) was “most effective at blocking SYN aggregation”. Moreover, the “α-syn accumulation in neuronal cultures overexpressing α-syn” value in the assay with SYN [4] (peptide at 1 uM, compared to vehicle) was “reduced accumulation of α-syn dimer”. Also, the “levels of monomeric and aggregated α-syn, immunoblot” value with α-syn (infusion, compared to scrambled peptide controls) is reported as “significant reduction”. Besides, in the assay with α-syn (intraventricular infusion 6 weeks, 30 μM peptide, compared to scrambled peptide), the “neuronal α-syn accumulation in the hippocampus” value is listed as “significant reduction in neuronal α-syn accumulation”. In assay [5], the neuronal calcium influx entry was “reduced neuronal calcium influx”. Further, in the assay with SYN [2] (at 37° C. and 65° C.), the “α-syn aggregation, cell free immunoblot assays” value is “reduced aggregation”. In addition, the “blocking SYN aggregation in cell free system, compared with the other peptides and controls” value with SYN [2] was “most effective at blocking SYN aggregation”.
